From patent US20240343761A1, “APELINERGIC MACROCYCLES AND USES THEREOF” (priority 2021, published 2024) come the findings set out here.

Where two headings read alike, the source gives them in different places. Numbered stars: 1 amine (or outer) side, 2 acyl side, 3 side chain; on linkers, the order of the positions; unused ones are H or OH. Bridge positions count the residues as written; N and C are the ends. Square brackets hold non-standard residues; d marks the D form. Ends that are not written are not given here. Peptide text beside a SMILES is read from it. cypTyr(OBn) = 3-cyclopentyl-O-benzyl-L-tyrosine, O=C([C@H](Cc1ccc(OCc2ccccc2)c(C2CCCC2)c1)N[*:1])[*:2]; Hyp(OBn) = O-benzyl-4-hydroxyproline, O=C([C@@H]1C[C@@H](OCc2ccccc2)CN1[*:1])[*:2]; Alnb = Nγ-allyl-Nγ-nosyl-α,γ-diamino-butanoic acid; Oic = O=C(O)[C@@H]1C[C@@H]2CCCC[C@@H]2N1; Phe(4-Br) = N[C@@H](Cc1ccc(Br)cc1)C(=O)O; hArg = N=C(N)NCCCC[C@H](N)C(=O)O; AllylGly = C=CC[C@H](N)C(=O)O; pGlu = O=C1CC[C@@H](C(=O)O)N1; Nle = CCCC[C@H](N)C(=O)O

Data set [1] can be described thus: Rat plasma stability (half-life in vitro). The format is in vitro ADME. Conditions: male, Sprague-Dawley, rat, plasma. The procedure:
Plasma was obtained from male Sprague-Dawley rats by collecting blood in heparin tube and centrifugating at 13,000 rpm to remove blood cells. The isolated plasma was stored at −80° C. and thawed right before the test. In 96-well plate, 6 μL of peptide solution at 1 mM was incubated with 27 μL of plasma at 37° C. in an oven equipped with orbital shaker. Tightly fitted caps were used to seal the wells to avoid water evaporation during incubation. […] A 96-well UPLC plate was put at the bottom to collect the samples. Both plates were centrifuged at 500 g for 10 min at 4° C. to accelerate the filtration. […] The quantity of remaining peptide was plotted into an exponential one-phase decay curve using GraphPad Prism 8 which allowed to calculate peptide half-life. The results were presented as mean±SEM of at least 3 independent experiments, each done in simplicate.
The percentage of remaining analogue was calculated by doing the ratio between AU of compound and AUC of internal standard. Half-lives were extrapolated from curves.

Data set [2] has as its target T1, human APJ (hAPJ) (Homo sapiens, UniProt P35414).
T1 construct: expressed in transfected cells; cell membranes
T1 sequence (P35414 1-380): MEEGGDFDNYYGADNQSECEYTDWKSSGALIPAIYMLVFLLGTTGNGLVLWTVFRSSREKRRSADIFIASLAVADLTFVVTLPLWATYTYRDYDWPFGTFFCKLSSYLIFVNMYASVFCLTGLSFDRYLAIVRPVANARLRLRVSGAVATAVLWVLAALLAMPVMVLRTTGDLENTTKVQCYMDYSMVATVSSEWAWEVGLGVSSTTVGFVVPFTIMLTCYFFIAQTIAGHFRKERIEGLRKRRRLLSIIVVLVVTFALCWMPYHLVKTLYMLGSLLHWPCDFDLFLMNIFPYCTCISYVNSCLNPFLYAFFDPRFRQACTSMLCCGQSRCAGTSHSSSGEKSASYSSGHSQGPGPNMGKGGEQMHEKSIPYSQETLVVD
Put plainly: Competitive radioligand binding ([125I][Nle75,Tyr77][Pyr1]-Ape13) on membranes of HEK293 cells stably expressing human APJ. Conditions: Ki binding. The procedure: HEK293 cells stably expressing YFP-tagged human APJ were cultured in DMEM medium supplemented with 10% FBS, at 37° C. under a humid atmosphere maintaining 5% CO2. Antibiotic G418 (400 μg/mL) was added to maintain a selection pressure for APJ-expressing cells while penicillin/streptomycin (0.1%) were used to prevent bacterial contamination.
Binding experiments were performed on cell membranes of HEK293 stably expressing the YFP-tagged human APJ receptor. Cells were frozen at −80° C. for storage and quickly thawed right before the experiments (1 min at 37° C.). […] The precipitate (cell membranes) was suspended in binding buffer (50 mM Tris-HCl, 0.2% BSA, pH 7.4). Binding assays were run in 96-well plates. […] (820 Ci/mmol)^3 and test ligand with a range of concentrations from 10^−1 to 10^−11 M in a total volume of 200 μL for 1 h at room temperature.
The incubation mixtures were filtered through a glass fiber filter (Millipore, pre-absorbed of PEI 0.5% for 2 h at 4° C.) to remove unbound ligands, and the filter membranes were washed three times with 170 μL cold binding buffer (4° C.). The γ emission was measured using a 1470 Wizard γ-counter from PerkinElmer (Waltham, USA) (80% efficiency).

The target of data set [3] is T2, hAPJ receptor (Homo sapiens, UniProt P35414).
T2 construct: expressed in transfected cells; host or cells: HEK293, transient transfection with PEI
T2 sequence (P35414 1-380): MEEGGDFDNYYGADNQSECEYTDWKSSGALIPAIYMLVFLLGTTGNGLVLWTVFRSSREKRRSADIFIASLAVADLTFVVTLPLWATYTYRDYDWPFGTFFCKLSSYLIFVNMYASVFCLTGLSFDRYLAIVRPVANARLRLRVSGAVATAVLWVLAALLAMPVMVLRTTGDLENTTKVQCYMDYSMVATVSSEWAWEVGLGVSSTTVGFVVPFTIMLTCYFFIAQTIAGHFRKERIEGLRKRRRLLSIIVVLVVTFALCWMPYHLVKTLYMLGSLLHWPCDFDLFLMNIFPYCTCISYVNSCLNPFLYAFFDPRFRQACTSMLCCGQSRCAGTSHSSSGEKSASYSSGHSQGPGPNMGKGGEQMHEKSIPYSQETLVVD
The data set can be described thus: BRET-based β-arrestin2 recruitment assay in HEK293 cells. The format is cell-based. The method, boiled down: (§1)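 HEK293 cells in HBSS stimulated with analogs from 10^−5 to 10^−11 M, 5 min at 37 °C (Gαi1) or 30 min at room temperature (β-arrestin2).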
In general terms: BRET reads energy transfer from a luciferase to a nearby fluorophore.

Data set [4] concerns the target T2, hAPJ receptor. The data set can be described thus: BRET-based Gαi1 activation assay in HEK293 cells. It is filed as cell-based. The method, boiled down: as §1
Data set [5] addresses T3, human APJ (transfected HEK293 cells, Gαi1 BRET assay) (human, UniProt P35414 1-380).
T3 sequence (looked up): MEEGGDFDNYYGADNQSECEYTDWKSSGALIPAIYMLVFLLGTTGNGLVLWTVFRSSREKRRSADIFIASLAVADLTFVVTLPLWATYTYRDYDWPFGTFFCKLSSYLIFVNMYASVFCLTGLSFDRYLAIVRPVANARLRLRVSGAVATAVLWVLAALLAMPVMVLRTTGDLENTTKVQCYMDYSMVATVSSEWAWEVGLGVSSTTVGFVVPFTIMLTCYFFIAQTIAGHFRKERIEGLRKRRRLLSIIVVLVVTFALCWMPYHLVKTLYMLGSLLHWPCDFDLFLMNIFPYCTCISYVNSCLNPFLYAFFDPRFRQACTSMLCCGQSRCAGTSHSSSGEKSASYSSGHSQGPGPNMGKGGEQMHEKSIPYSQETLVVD
The data set can be described thus: cell-based or functional assay.

In data set [6] the target is T3, human APJ (transfected HEK293 cells, …). Put plainly: cell-based or functional assay. This is another data set of the same source.
The target of data set [7] is T4, YFP-tagged human APJ receptor (human, UniProt P35414 1-380).
T4 construct: whole, on cells; also called hAPJ; APJ WT; not shown: YFP tag
T4 sequence (looked up): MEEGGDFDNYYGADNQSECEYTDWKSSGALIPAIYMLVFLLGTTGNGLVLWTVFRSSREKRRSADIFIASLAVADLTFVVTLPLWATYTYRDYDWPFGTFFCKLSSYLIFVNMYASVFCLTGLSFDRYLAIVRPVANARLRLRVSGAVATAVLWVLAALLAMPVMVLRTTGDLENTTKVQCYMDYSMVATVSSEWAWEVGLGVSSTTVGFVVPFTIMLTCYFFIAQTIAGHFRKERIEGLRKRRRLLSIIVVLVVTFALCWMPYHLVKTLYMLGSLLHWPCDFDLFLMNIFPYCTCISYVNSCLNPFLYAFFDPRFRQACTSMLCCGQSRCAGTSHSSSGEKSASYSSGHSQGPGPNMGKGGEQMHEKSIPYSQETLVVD
The data set can be described thus: competitive radioligand binding, HEK293-hAPJ membranes.

The target of data set [8] is T3, human APJ (transfected HEK293 cells, …). The data set can be described thus: cell-based or functional assay. This is another data set of the same source.
Data set [9] has as its target T4, YFP-tagged human APJ receptor. The data set can be described thus: competitive radioligand binding, HEK293-hAPJ membranes. The source holds these as a separate data set.

What is called half-life is how long it takes for the measured level to halve. As usually defined, the Ki is a dissociation constant, usually derived from enzyme kinetics or from competition with a known ligand. `CC(C)C[C@@H]1NC(=O)[C@H](CCCNC(=N)N)NC(=O)[C@@H](N)CC=CC[C@@H](C(=O)N[C@@H](CCCCN)C(=O)NCC(=O)N2CCC[C@H]2C(=O)N[C@@H](C)C(=O)O)NC(=O)[C@H](CO)NC1=O` [Compound 34, NH2-c[X-R-L-S-X]c-K-G-P-Ala] (H-[AllylGly]RLS[AllylGly]KGPA-OH; staple 1-5) had a half-life at 0.182 mM in [1] (Table I, rat plasma, 37° C., up to 24 h) of 0.8 ± 0.3 h. Besides, the Ki in data set [2] is over 10000 nM.

Usually EC50 stands for the midpoint of the concentration-response curve. A lower EC50 goes with greater potency. Regarding `CCCC[C@H](NC(=O)[C@@H]1CCC(=O)NCCCC[C@H](N)C(=O)N[C@@H](CCCNC(=N)N)C(=O)N[C@@H](CCCNC(=N)N)C(=O)N1)C(=O)N[C@H]1CSSC[C@@H](C(=O)N[C@@H](CCCNC(=N)N)C(=O)N[C@H](C(=O)N2CCC[C@H]2C(=O)N[C@@H](Cc2ccccc2)C(=O)N2CCC[C@H]2C(=O)O)C(C)C)NC(=O)[C@H](Cc2c[nH]cn2)NC(=O)[C@H](CC(C)C)NC1=O` [Compound 79, c[K-R-R-E]-Nle-c[C-L-H-C]-R-V-P-F-P] (H-KRRE[Nle]CLHCRVPFP-OH; lactam 1-4; disulfide 6-9), the half-life at […] in [1] (Table III, rat plasma, read-out: Half-life in vitro (converted)) was over 17 h. Further, the EC50 stood at 51 ± 3 nM in data set [3] and 4 ± 0.8 nM in data set [4].

The term Emax denotes the greatest response seen or fitted, relative to the assay's reference. In data set [1] (t1/2 in rat plasma), `CCCC[C@H](NC(=O)[C@@H]1CCCN1C(=O)CNC(=O)[C@H](CCCCN)NC(=O)[C@@H]1CC=CC[C@H](NC(=O)[C@H](CCCNC(=N)N)NC(=O)[C@@H]2CCC(=O)N2)C(=O)N[C@@H](CCCNC(=N)N)C(=O)N[C@@H](CC(C)C)C(=O)N[C@@H](CO)C(=O)N1)C(=O)N1CCC[C@H]1C(=O)N[C@@H](Cc1ccccc1)C(=O)O` [Compound 97, Pyr-R-c[X-R-L-S-X]c-K-G-P-Nle-P-F, reference compound] registered a half-life at […] of 2 to 5 h. The maximum response (Emax) in data set [3] (HEK293, Table V, read-out: ß-arr2 Emax) worked out at 98%; in [4] (HEK293, Table V, read-out: Gαi1 Emax), 101%.

In the case of [pGlu]RRSEPLHKRVPF[Hyp(OBn)] (lactam 5-9) [Compound 93 (KT03-19)], the “EC50 Gail” value in [5] came to 47 nM.

Regarding [pGlu]R[AllylGly]RLS[Alnb]KGP[Nle]PF (staple 3-7) [Compound 16 (KT01-123)], the “Gαi1 Emax (%)” value in [6] amounted to 102%.

For the molecule [pGlu]R[AllylGly]RLS[AllylGly]KGP[Nle]PF (staple 3-7) [Compound 97], the “Gαi1 Emax (%)” value in data set [6] worked out at 101%.

Consider [pGlu]RRSEPLHKRV[Oic]FP (lactam 5-9) [Compound 78 (AM03-67)], for which, in data set [7], the Ki stood at 173 nM. Moreover, the “EC50 Gail” value in [5] is 24 nM.

On to [pGlu]R[hArg]SEPLHKRVPFP (lactam 5-9) [Compound 91 (KT03-17)], for which the affinity in data set [7] corresponds to a Ki of 9.4 nM. The “EC50 Gail” value in [5] was determined as 4.3 nM.

With KRRE[Nle]PLHSRV[Oic]FP (lactam 1-4) [Compound 73 (AM03-66)], the Ki in data set [7] worked out at 11 nM. Besides, the “EC50 Gail” value in data set [5] stood at 14 nM.

Molecule KRRE[Nle]CLHCRVPFP (lactam 1-4; disulfide 6-9) [Compound 79 (AM03-68)] gave a Ki in data set [7] of 0.61 nM. Also, the “EC50 Gail” value in data set [5] is 4 nM.

As to Ac-KFRRQRPRLEHAKPAPF (lactam 10-13) [Compound 62 (KT02-62)], the “EC50 Gαi1” value in data set [8] stood at 33.4 nM.

Take [pGlu]RRSEPLHKRVP[Phe(4-Br)]P (lactam 5-9) [Compound 92 (KT03-15)]: the “EC50 Gail” value in [5] amounted to 16 nM.

As to H-[AllylGly]RLS[Alnb]KGP[Nle]PF (staple 1-5) [Compound 28 (KT01-135)], in [6], the “Gαi1 Emax (%)” value worked out at 106%.

Turning to Ac-KFRRQRPRLEHKKP[Nle]P[cypTyr(OBn)] (lactam 10-13) [Compound 63 (KT02-76)], the “EC50 Gαi1” value in [8] stood at 5.47 nM. This molecule had a Ki in data set [9] of 0.25 nM.
